Data taken from patent publication US20220288168A1 (Eli Lilly, published 2022).
Numbered stars: 1 amine (or outer) side, 2 acyl side, 3 side chain; on linkers, the order of the positions; unused ones are H or OH. Bridge positions count the residues as written; N and C are the ends. Square brackets hold non-standard residues; d marks the D form. Side chains are listed from the residue outwards. Ends that are not written are not given here. * marks the point of attachment. C20 diacid = O=C(O)CCCCCCCCCCCCCCCCCCC(=O)*; γGlu = O=C(O)[C@H](CCC(=O)[*:2])N[*:1]; αMeF = C[C@](N)(Cc1ccccc1)C(=O)O; NMeD = CN[C@@H](CC(=O)O)C(=O)O; NMeN = CN[C@@H](CC(N)=O)C(=O)O; αMeL = CC(C)C[C@](C)(N)C(=O)O; Orn = NCCC[C@H](N)C(=O)O; AEEA = NCCOCCOCC(=O)O; CH2 = C([*:1])[*:2]

T1: human calcitonin receptor (hCTR) (human, UniProt P30988 25-474)
T1 sequence (looked up): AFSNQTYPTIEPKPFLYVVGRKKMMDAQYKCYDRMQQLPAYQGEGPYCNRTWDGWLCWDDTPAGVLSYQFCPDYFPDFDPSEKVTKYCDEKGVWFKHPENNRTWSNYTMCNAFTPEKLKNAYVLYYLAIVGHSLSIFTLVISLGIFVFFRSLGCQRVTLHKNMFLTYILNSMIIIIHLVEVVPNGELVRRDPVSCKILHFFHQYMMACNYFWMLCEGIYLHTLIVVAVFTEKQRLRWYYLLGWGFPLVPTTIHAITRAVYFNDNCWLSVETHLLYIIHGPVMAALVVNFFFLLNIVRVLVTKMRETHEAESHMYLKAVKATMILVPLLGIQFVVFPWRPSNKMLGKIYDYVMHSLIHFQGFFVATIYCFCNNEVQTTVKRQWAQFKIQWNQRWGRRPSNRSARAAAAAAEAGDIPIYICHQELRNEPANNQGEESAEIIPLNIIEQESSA


Assays:
[1] = target: T1, human calcitonin receptor (hCTR); test: cell-based or functional assay
[2] = target: T2, human amylin receptor 1 (hAMY1R): human calcitonin receptor co-expressed with human RAMP1 in UMUC3 cells (human, UniProt P30988 25-474; O60894 27-148); test: cell-based or functional assay
[3] = target: T1, human calcitonin receptor (hCTR); test: competitive radioligand binding filter assay, hCTR membranes, displacement of 125I-hCT
[4] = target: T2, human amylin receptor 1 (hAMY1R): human …; test: competitive radioligand binding filter assay, hAMY1R membranes, displacement of 125I-rAMY
Experimental: The equilibrium dissociation constants (Kd) for the various receptor/radioligand interactions are determined from saturation binding analysis using the same reagents and buffers as described below for compound testing.
Binding reactions are carried out in 0.1 mL total reaction volume in a polystyrene 96 deep-well assay block. […] The binding reaction is initiated by the addition of 0.05 mL of 200 μg/mL hAMY1R diluted in assay buffer to the radioactivity. Assay blocks are gently vortexed, sealed with parafilm, and incubated at RT for approximately 20 hours.

T2 sequence (O60894 27-148, chain 2 of 2, one chain of several): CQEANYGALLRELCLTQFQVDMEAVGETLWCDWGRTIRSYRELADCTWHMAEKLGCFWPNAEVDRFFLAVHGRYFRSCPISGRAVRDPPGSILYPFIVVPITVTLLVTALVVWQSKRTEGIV

hCTR cAMP EC50 [1] [nM] | hAMYIR cAMP EC50 [2] [nM] | Ki [3] [nM] | Ki [4] [nM] | Binder
14 | 0.08 | – | – | [γGlu]CNTATCATGKLAEFLVRSSNNFGPK([γGlu-AEEA-AEEA-C20 diacid])LPPTEVGSNTY-NH2 (bridge 2-7 via CH2) [Compound X]
9.69 | 0.107 | 927 | 0.0435 | K([γGlu-γGlu-C20 diacid])CETATCATG[Orn][αMeL]AEFLVRSSHNFGPILPPTEVGSNTY-NH2 (bridge 2-7 via CH2, Acylated form of Compound VII) [Compound VIII]
9.49 | 0.078 | – | – | [γGlu]CGTATCATG[Orn]LAEFLVRSSNNFGPK([γGlu-γGlu-C20 diacid])LPPTEVGSNTY-NH2 (bridge 2-7 via CH2) [Compound XIII]
18.9 | 0.132 | – | – | [γGlu]CNTATCATGKLAEFLVRSSNNFGPK([AEEA-AEEA-γGlu-C20 diacid])LPPTEVGSNTY-NH2 (bridge 2-7 via CH2) [Compound IX]
6.14 | 0.107 | 665 | 0.0296 | [γGlu]CNTATCATG[Orn]LAE[αMeF]LVRSSN[NMeD]FGPK([γGlu-γGlu-C20 diacid])LPPTEVGSNTY-NH2 (bridge 2-7 via CH2, Acylated form of Compound III) [Compound IV]
11.9 | 0.173 | – | – | KCETATCATG[Orn][αMeL]AEFLVRSSHNFGPILPPTEVGSNTY-NH2 (bridge 2-7 via CH2) [Compound VII]
16.3 | 0.156 | – | – | [γGlu]CNTATCATG[Orn]LAE[αMeF]LVRSSN[NMeD]FGPKLPPTEVGSNTY-NH2 (bridge 2-7 via CH2) [Compound III]
18 | 0.133 | – | – | [γGlu]CNTATCATG[Orn]LAE[αMeF]LVRSSN[NMeN]FGPKLPPTEVGSNTY-NH2 (bridge 2-7 via CH2) [Compound I]
2.34 | 0.075 | 202 | 0.017 | [γGlu]CNTATCATG[Orn]LAE[αMeF]LVRSSN[NMeN]FGPK([γGlu-γGlu-C20 diacid])LPPTEVGSNTY-NH2 (bridge 2-7 via CH2, Acylated form of Compound I) [Compound II]
25.9 | 0.113 | – | – | [γGlu]CNTATCATQ[Orn]LAEFLVRSSNNFGPK([AEEA-AEEA-γGlu-C20 diacid])LPPTEVGSNTY-NH2 (bridge 2-7 via CH2) [Compound XII]
10.5 | 0.038 | – | – | [γGlu]CNTATCATGKLAEFLVRSSNNFGPK([γGlu-γGlu-AEEA-C20 diacid])LPPTEVGSNTY-NH2 (bridge 2-7 via CH2) [Compound XI]
13.2 | 0.107 | 235 | 0.0445 | K([γGlu-γGlu-C20 diacid])CETATCATG[Orn]LAE[αMeF]LVRSSN[NMeD]FGPILPPTEVGSNTY-NH2 (bridge 2-7 via CH2, Acylated form of Compound V) [Compound VI]
17 | 0.139 | – | – | KCETATCATG[Orn]LAE[αMeF]LVRSSN[NMeD]FGPILPPTEVGSNTY-NH2 (bridge 2-7 via CH2) [Compound V]
